The values that follow are results of earlier work, collected in paper PMC11820047.

Where two headings read alike, the source gives them in different places.

For data set [1], the target named is EGFR (Homo sapiens) (UniProt P00533).
For data set [2] the target is unchanged. This is another data set of the same source.

For orientation: Kd means the equilibrium constant for the complex coming apart. As to EGF (from UniProt P01133), the Kd with EGFR (Homo sapiens) [1] is 2 nM. As to GE11, in the data set with EGFR (Homo sapiens) [2], the Kd is 22 nM.
